Test results reported in patent publication EP1980246A1.

What was measured:
[1] = target: purified porcine TGF-β1 (Peninsula) (porcine) (UniProt P07200); assay: active TGF-β ELISA, R2X capture, TGF-β titrated in TBS, BDA47 detection; ΔA50%
[2] = target: recombinant human TGF-β1 (human) (UniProt P01137); assay: as above
Chain of recombinant human TGF-β1 (human) (P01137 279-390 limits assumed): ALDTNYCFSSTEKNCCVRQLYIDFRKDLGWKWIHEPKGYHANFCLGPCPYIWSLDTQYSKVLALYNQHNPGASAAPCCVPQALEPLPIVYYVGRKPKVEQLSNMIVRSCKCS

Chain of purified porcine TGF-β1 (Peninsula) (porcine) (P07200 279-390 limits assumed): as the sequence (P01137 279-390 limits assumed) above

EC50 [1]: 0.68 nM
EC50 [2]: 0.72 nM
Substance: truncated extracellular domain of the type II TGF-beta receptor fused to glutathione-S-transferase (R2X) (from UniProt P08515 1-218; P37173 23-166)
